For this assay, the target named is F-actin (rabbit, UniProt P68135 1-377). Briefly: co-sedimentation.

B1: β-III-spectrin-FLAG fragment (amino acids 1-1066), wild-type (domain or fragment)
chain: MSSTLSPTDFDSLEIQGQYSDINNRWDLPDSDWDNDSSSARLFERSRIKALADEREAVQKKTFTKWVNSHLARVTCRVGDLYSDLRDGRNLLRLLEVLSGEILPKPTKGRMRIHCLENVDKALQFLKEQKVHLENMGSHDIVDGNHRLTLGLVWTIILRFQIQDISVETEDNKEKKSAKDALLLWCQMKTAGYPNVNVHNFTTSWRDGLAFNAIVHKHRPDLLDFESLKKCNAHYNLQNAFNLAEKELGLTKLLDPEDVNVDQPDEKSIITYVATYYHYFSKMKALAVEGKRIGKVLDHAMEAERLVEKYESLASELLQWIEQTIVTLNDRQLANSLSGVQNQLQSFNSYRTVEKPPKFTEKGNLEVLLFTIQSKLRANNQKVYTPREGRLISDINKAWERLEKAEHERELALRTELIRQEKLEQLAARFDRKAAMRETWLSENQRLVSQDNFGLELAAVEAAVRKHEAIETDIVAYSGRVQAVDAVAAELAAERYHDIKRIAARQHNVARLWDFLRQMVAARRERLLLNLELQKVFQDLLYLMDWMEEMKGRLQSQDLGRHLAGVEDLLQLHELVEADIAVQAERVRAVSASALRFCNPGKEYRPCDPQLVSERVAKLEQSYEALCELAAARRARLEESRRLWRFLWEVGEAEAWVREQQHLLASADTGRDLTGALRLLNKHTALRGEMSGRLGPLKLTLEQGQQLVAEGHPGASQASARAAELQAQWERLEALAEERAQRLAQAASLYQFQADANDMEAWLVDALRLVSSPELGHDEFSTQALARQHRALEEEIRSHRPTLDALREQAAALPPTLSRTPEVQSRVPTLERHYEELQARAGERARALEAALALYTMLSEAGACGLWVEEKEQWLNGLALPERLEDLEVVQQRFETLEPEMNTLAAQITAVNDIAEQLLKANPPGKDRIVNTQEQLNHRWQQFRRLADGKKAALTSALSIQNYHLECTETQAWMREKTKVIESTQGLGNDLAGVLALQRKLAGTERDLEAIAARVGELTREANALAAGHPAQAVAINARLREVQTGWEDLRATMRRREESLGEARR
With B1, the Kd – broadly, the equilibrium constant for the complex coming apart – is 24.6 ± 12 µM.

B2: β-III-spectrin-FLAG fragment (amino acids 1-1066), R480W (domain or fragment)
chain: MSSTLSPTDFDSLEIQGQYSDINNRWDLPDSDWDNDSSSARLFERSRIKALADEREAVQKKTFTKWVNSHLARVTCRVGDLYSDLRDGRNLLRLLEVLSGEILPKPTKGRMRIHCLENVDKALQFLKEQKVHLENMGSHDIVDGNHRLTLGLVWTIILRFQIQDISVETEDNKEKKSAKDALLLWCQMKTAGYPNVNVHNFTTSWRDGLAFNAIVHKHRPDLLDFESLKKCNAHYNLQNAFNLAEKELGLTKLLDPEDVNVDQPDEKSIITYVATYYHYFSKMKALAVEGKRIGKVLDHAMEAERLVEKYESLASELLQWIEQTIVTLNDRQLANSLSGVQNQLQSFNSYRTVEKPPKFTEKGNLEVLLFTIQSKLRANNQKVYTPREGRLISDINKAWERLEKAEHERELALRTELIRQEKLEQLAARFDRKAAMRETWLSENQRLVSQDNFGLELAAVEAAVRKHEAIETDIVAYSGWVQAVDAVAAELAAERYHDIKRIAARQHNVARLWDFLRQMVAARRERLLLNLELQKVFQDLLYLMDWMEEMKGRLQSQDLGRHLAGVEDLLQLHELVEADIAVQAERVRAVSASALRFCNPGKEYRPCDPQLVSERVAKLEQSYEALCELAAARRARLEESRRLWRFLWEVGEAEAWVREQQHLLASADTGRDLTGALRLLNKHTALRGEMSGRLGPLKLTLEQGQQLVAEGHPGASQASARAAELQAQWERLEALAEERAQRLAQAASLYQFQADANDMEAWLVDALRLVSSPELGHDEFSTQALARQHRALEEEIRSHRPTLDALREQAAALPPTLSRTPEVQSRVPTLERHYEELQARAGERARALEAALALYTMLSEAGACGLWVEEKEQWLNGLALPERLEDLEVVQQRFETLEPEMNTLAAQITAVNDIAEQLLKANPPGKDRIVNTQEQLNHRWQQFRRLADGKKAALTSALSIQNYHLECTETQAWMREKTKVIESTQGLGNDLAGVLALQRKLAGTERDLEAIAARVGELTREANALAAGHPAQAVAINARLREVQTGWEDLRATMRRREESLGEARR
The molecule B2 yielded a Kd of 34.9 ± 14.4 µM.

Source of the values: paper PMC11429872 (bioRxiv, 2024).
